Test results published in the nanobody polyreactivity screen of Harvey et al. (2022).

Assay: yeast display, Sf9 membrane polyspecificity reagent, FACS + sequencing; frameworks hold sequencing errors
Method in brief: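 Using colony PCR, genes from sorted yeast display clones were amplified, then sequenced on MiSeq at 2 × 250 and filtered by CDR length. The clones had been stained with 10% biotinylated, detergent-solubilized Sf9 membrane reagent for 1 hour at 4 °C and sorted by FACS into low and high (top ~1%) gates on anti-HA and streptavidin fluorescence. Polyreactivity labels come from the gate of origin.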

Sequence	polyreactivity (PSR sort gate)
QVQLVESGGGLVQAGGSLRLSCAAYGFTFWWYAMGWYRQAPGNERELVAAISASGASTYYADSVKGRFTISRDNAKNTVYLQMNSLKPEDTAVYYCAVVGLLRLYYWGQGTQVTVSS	high polyreactivity
QVQLVESGGGLVQAGGSLRLSCAAYGIIFRYYAMGWYRQAPGKERELVAAITASGGSTYYADSVKGRFTISRDHAKNTVYLQMNSLKPEDTAVYFGAAGSYFQHLIGYSTVSYGRNYWGQGTQVTVSS	high polyreactivity
QVQLVESGGGLVQAGGSLRLSCAAYGITFAPYAMGWYRQAPGKERELVAGINTGGSTYYADSVKGRFTISRDNAKNTVYLQMNSLKPEDTAVYYCATESYPADHDIPGSDYWGQGTQVTVSS	low polyreactivity
QVQLVESGGGLVQAGGSLRLSCAAYGITFRAYAMGWYRQAPGKEREFVASISGSGGSTYSADSVKGRFTISRDNAKNTVYFQMNSLKPEDTAVYYCATRRWGLATPTRYDYWGQGTQVTVSS	high polyreactivity
QVQLVESGGGLVQAGGSLRLSCAAYGITFSGYDMGWYRQAPGKERELVADITISTGSTYYADSVKGRFTISRDNAKNTVYLEMNSLKAEDTAVYYWNADSWFPDHFSYYGPYDYWGQGSQVTVSS	low polyreactivity
QVQLVESGGGLVQAGGSLRLSCAAYGITFSKNAKGWYRQAPGKERELVAAISRGGSSYYADSVKGRFTISRDNAKNTVYLQMNSLKPEDTAVYYCSAGWLRKYYYWGQGTQVTVSS	low polyreactivity
QVQLVESGGGLVQAGGSLRLSCAAYGLTLGRNAMGWYRQAPGKERELVAAITQSGGSTYYADSVKGRFTISRDNAKITVYLQMNSLKPEDTAVFYGAAQYSWGHYYTFDYWGQGTQVTVSS	low polyreactivity
QVQLVESGGGLVQAGGSLRLSCAAYGNTFYRNAMGWYRQAPGKERELVAAITFSTGRTYYADSVKGRFTISRDNAKNTVYLQLNSLKPEDTAVYYCAAFYRGGDYWGQGTQVTVSS	high polyreactivity
QVQLVESGGGLVQAGGSLRLSCAAYGRIFDGNAMGWYRQAPGKERELVAAITSRGGRTYYADSVKGRFTISRDNAKNTVYLQMNSLKPEDTAVYYCNTRVKSYGHYDYWGQGTQVTVSS	high polyreactivity
QVQLVESGGGLVQAGGSLRLSCAAYGRIFGYYAMGWYRQAPGKEREFVATISRSGGRTYYADSVKGRFTISRDNAKNTVYLQMNSLKPEDTAVYYCAKGVQFGSKTTFWYDYWGQGTQVTVSS	high polyreactivity
QVQLVESGGGLVQAGGSLRLSCAAYGRTFGLYAMGWYRQAPGKERELVAAISWGGGRTYYADSVKGRFTISRDNAKHTVYLQMNSLKPEDTAVFYCNAVYSPRYYVGGYDYWGQGTQVTVSS	high polyreactivity
QVQLVESGGGLVQAGGSLRLSCAAYGRTFPLYAMGWYRQAPGKEREFVAAISSRGGRTYYADSVKGRFTISRDNEKNTVYLQMNSLKPEDTAVYYCNARYVHDGFDYWGQGTQVTVSS	high polyreactivity
QVQLVESGGGLVQAGGSLRLSCAAYGRTLGDYAMGWYRQAPGKERELVAAISSGGNTYYADSVKGRFTISRDNAKNTVYLQMKSVKPEDSAVYYCDAAHYYRSYWGQGTQETVSS	high polyreactivity
QVQLVESGGGLVQAGGSLRLSCAAYGSIFAHYAMGWYRQAPGKERELVARISWSGGSTYYADSVKGRFSISLDNAKNTVYLQMNSLKPEDTAVYYCSADLTSKSSPQGYRYDYWGQGTQVTVSS	low polyreactivity
QVQLVESGGGLVQAGGSLRLSCAAYGSTFGGNARGWYIQAPGKERELVAVISKRGGSTYYADSVKGRFTISRDYEKNTVYLQINSLKPEDTAVYYCAATYSRYWSPTYDYWGQGTQVTVSS	high polyreactivity
QVQLVESGGGLVQAGGSLRLSCAAYGSTFKSYAMGWYSQAPGKDRELVAAITHRGSTYYADSVKGRFTISRDNAKNTVYLQMNSLKPEDTAVYYCNVRRIGNGRRVDYWGQGTQVTVSS	high polyreactivity

Sequence	polyreactivity (PSR sort gate)
QVQLVESGGGLVQAGGSLRLSCAAYGSTFTRYTMGWYRQAPGKDRELVASSTRTGSTNYADSVKGRFTISRDNAKNTVYLQMYSLKPEDTAVYYCAGGRYYSYRFSFGYWGQGTQVTVSS	high polyreactivity
QVQLVESGGGLVQAGGSLRLSCAAYGYIFDHYAMGWYRQAPGKERELVAAINWSGGRTYYADSVKGRFTISRDNAKNTVYLQMNSLKPEDTAVYYCAAGGVSENDYWGQGTQVTVSS	high polyreactivity
QVQLVESGGGLVQAGGSLRLSCAAYSYVMGWNRQAPGKERELVAAISQSGGSTYYADSVKGRFTISRDNPKNTVYLQMNSLKPEDTAVYYCAARREPYQYNQYYSWGQGTKVTVSS	high polyreactivity
QVQLVESGGGLVQAGGSLRLSCAAYVRIIYDYAKGWYRQAPGKERELVAAISKGGGSTYYADSVKGRFTISRDNAKNTVYLQMNSLNPEDTAVYYCAASTSHTTDTRYDYLGQGTQVTVSS	low polyreactivity
QVQLVESGGGLVQAGGSLRLSCAAYYAMGWYRHAPGKERELVAAIDDGTSTNYADSVKGRFTISRDNAKNTVYLQMNSLKPEDTAVYYCNKLSEVTYYGSKFDYWGQGTQVTVSS	low polyreactivity
QVQLVESGGGLVQAGGSLRLSCADCGSIFSSNAKGWYRQEPGKERELVAAISRSACSTYYADSVKGRFTISRDIAKNTVYLQMNSLKQEDTAVYYCNGVTRLGTYDYWGQGSQVTVSS	high polyreactivity
QVQLVESGGGLVQAGGSLRLSCADSARILYHYAIGWYRQAHGKETELVAAITRGGGTNYADSVKGRFTISRDNAKNTVYLQMNSLKPEDTAVYYCNADRFIVTRSRRGDYWGQGTQVTVSS	low polyreactivity
QVQLVESGGGLVQAGGSLRLSCADSGFILSPNTMGWYRQAPGKERELVAAMSSDVSTYADSVTGRFTISRDNAKNTVYLQMNSLKPEDTAVYYCNADDFGYASYEYWGQGTQVTVSS	low polyreactivity
QVQLVESGGGLVQAGGSLRLSCADSGFILTYYAMGWYRQAPGKERELVAAISWSGGSTYYADSVKGRFTISRDNAKNTVYLQMNSLKPEDTAVYYCAAEKRYSSYDYWGQGTQVTVSS	high polyreactivity
QVQLVESGGGLVQAGGSLRLSCADSGFTFAANTMGWYRQAPGKARELVADISGRGDRTSYADSVKGRFTISRDNAKNTVYLQMNSLKPEDTAVYYCAVDIYYYSNVHYYYWGQGTQVTVSS	low polyreactivity
QVQLVESGGGLVQAGGSLRLSCADSGFTFSWYAMGWYRQAPGKERELVAAISLRGGSTYYADSVKGRFTISRENAKNTVYFQMNSLKPEDTAVYYCAADSFRWRYKNFYYWGQGTQVTLSS	high polyreactivity
QVQLVESGGGLVQAGGSLRLSCADSGFTFTLYAMGWYRQAPGKERELVAAISGIGGSTYYSDSVKGRFTISSDNAKNTVYLQMNSLKPEDTAVYYCNAVSGDSGDYWGQGTQVNVSS	low polyreactivity
QVQLVESGGGLVQAGGSLRLSCADSGFTFWRYAMGWYRQAPGKERELVAAISWRGSSTYYADSVKGRFTISRDIAKNTVYLQMNSLKPEDTAVYYCARYQSTYDSTYNYWGQGTQVTVSS	high polyreactivity
QVQLVESGGGLVQAGGSLRLSCADSGFTFYVYTMGWYRQAPAKERELVAAITWSGGSTYYADSVKGRFTISRDNAKNTVYLQMNSLKPEDTAVYYCNRVGYWVGHDSWGQGTQVTVSS	high polyreactivity
QVQLVESGGGLVQAGGSLRLSCADSGIIFTRYAMGWYRQAPGKERELVAVITQSGGRTYYADSVKGRFTISRDNAKNTVYLQLNSLKPEDTAVYYCAAAYKPSYFTRAGDYWGQGTQVTVSS	high polyreactivity
QVQLVESGGGLVQAGGSLRLSCADSGITFKYNAMGWYRQAPGKERELVAGITWTGGTTYYADSVKGRFTISRDNAKNTVYLQMNSLNPEDTAVYYCATRNYAVVPSVRREGYYWGQGTQVTVSS	low polyreactivity
